Assay results: publication PMC9482650, “Quantitative fragmentomics allow affinity mapping of interactomes” (Nature Communications, 2022)
Substitutions are numbered along the chain they refer to.

T1: APBA1_2, Q02410
T1 sequence (Q02410 742-832, limits assumed, looked up): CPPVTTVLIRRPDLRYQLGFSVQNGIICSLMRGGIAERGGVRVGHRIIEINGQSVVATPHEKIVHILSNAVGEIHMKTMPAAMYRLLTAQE

T2: APBA2_2, Q99767
T2 sequence (Q99767 654-744, limits assumed, looked up): T1 sequence (Q02410 742-832, limits assumed, looked up) with R10K, R15K, P59A, H65Q, I66A, A70S, Y84F, A89G

T3: ARHGAP21, Q5T5U3
T3 sequence (Q5T5U3 45-169, limits assumed, looked up): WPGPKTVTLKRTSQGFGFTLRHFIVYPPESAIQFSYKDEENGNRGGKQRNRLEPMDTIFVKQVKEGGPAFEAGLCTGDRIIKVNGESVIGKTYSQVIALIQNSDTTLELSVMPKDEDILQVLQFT

T4: LNX2_3, Q8N448
T4 sequence (Q8N448 463-564, limits assumed, looked up): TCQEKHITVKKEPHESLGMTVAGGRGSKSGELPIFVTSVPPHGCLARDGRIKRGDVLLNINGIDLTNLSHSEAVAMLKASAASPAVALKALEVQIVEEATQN

T5: MPP2, Q14168
T5 sequence (Q14168 180-250, limits assumed, looked up): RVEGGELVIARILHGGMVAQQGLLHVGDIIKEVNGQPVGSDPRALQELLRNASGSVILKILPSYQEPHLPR

T6: MPP7, Q5T2T1
T6 sequence (Q5T2T1 134-230, limits assumed, looked up): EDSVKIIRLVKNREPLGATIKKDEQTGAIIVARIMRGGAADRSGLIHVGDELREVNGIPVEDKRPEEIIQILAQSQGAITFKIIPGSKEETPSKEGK

T7: NHERF3_1, Q5T2W1
T7 sequence (Q5T2W1 4-100, limits assumed, looked up): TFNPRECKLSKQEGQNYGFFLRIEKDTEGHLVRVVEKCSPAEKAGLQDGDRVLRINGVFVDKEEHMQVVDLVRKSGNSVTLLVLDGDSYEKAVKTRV

T8: PCLO, Q9Y6V0
T8 sequence (Q9Y6V0 4491-4600, limits assumed, looked up): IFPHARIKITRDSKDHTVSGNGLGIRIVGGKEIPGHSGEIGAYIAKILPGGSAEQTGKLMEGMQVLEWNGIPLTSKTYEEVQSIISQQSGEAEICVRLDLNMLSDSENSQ

T9: PDZRN3_1, Q9UPQ7
T9 sequence (Q9UPQ7 244-349, limits assumed, looked up): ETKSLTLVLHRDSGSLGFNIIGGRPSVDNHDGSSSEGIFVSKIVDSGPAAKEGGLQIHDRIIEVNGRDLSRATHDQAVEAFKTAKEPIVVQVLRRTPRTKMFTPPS

T10: SNTG1, Q9NSN8
T10 sequence (Q9NSN8 52-150, limits assumed, looked up): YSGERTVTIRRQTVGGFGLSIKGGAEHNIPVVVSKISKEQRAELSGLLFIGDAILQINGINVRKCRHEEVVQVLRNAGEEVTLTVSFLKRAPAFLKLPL

B1: PRKACA, P17612 (peptide)
chain: EKCGKEFSEF
B2: JUP, P14923 (peptide)
chain: PYPTADHMLA
B3: ADGRA3, Q8IWK6 (peptide)
chain: TGLWKHETTV
B4: SDC2, P34741 (peptide)
chain: QKAPTKEFYA

Assays:
Test in all cases: holdup assay
Set-up in all cases: key: below the threshold = too weak to quantify, mostly under pKd 3.1 to 4
Conditions in all cases: plain residues with an end cap or a label only (N-terminal biotin on a linker: ado-ado)
APBA1_2, Q02410 = target: T1, APBA1_2, Q02410
APBA2_2, Q99767 = target: T2, APBA2_2, Q99767
ARHGAP21, Q5T5U3 = target: T3, ARHGAP21, Q5T5U3
DLG1_1, Q12959 = target: DLG1_1, Q12959
DLG4_2, P78352 = target: DLG4_2, P78352
DLG4_2, P78352, sequence (P78352 155-259): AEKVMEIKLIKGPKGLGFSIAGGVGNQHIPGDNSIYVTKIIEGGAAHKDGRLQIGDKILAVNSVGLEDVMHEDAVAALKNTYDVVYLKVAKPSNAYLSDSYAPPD

FRMPD4, Q14CM0 = target: FRMPD4, Q14CM0
FRMPD4, Q14CM0, sequence (Q14CM0 67-160): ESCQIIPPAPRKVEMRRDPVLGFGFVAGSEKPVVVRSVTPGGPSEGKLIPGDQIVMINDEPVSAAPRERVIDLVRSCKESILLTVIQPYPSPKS

GRID2IP_2, A4D2P6 = target: GRID2IP_2, A4D2P6
GRID2IP_2, A4D2P6, sequence (A4D2P6 272-370): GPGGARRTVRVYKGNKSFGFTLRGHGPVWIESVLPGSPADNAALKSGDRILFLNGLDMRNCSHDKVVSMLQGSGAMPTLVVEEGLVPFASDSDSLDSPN

GRIP2_3, Q9C0E4 = target: GRIP2_3, Q9C0E4
GRIP2_3, Q9C0E4, sequence (Q9C0E4 238-339): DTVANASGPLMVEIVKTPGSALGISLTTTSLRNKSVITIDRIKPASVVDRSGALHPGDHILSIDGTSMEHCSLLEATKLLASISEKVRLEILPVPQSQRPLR

GRIP2_4, Q9C0E4 = target: GRIP2_4, Q9C0E4
GRIP2_4, Q9C0E4, sequence (Q9C0E4 446-548): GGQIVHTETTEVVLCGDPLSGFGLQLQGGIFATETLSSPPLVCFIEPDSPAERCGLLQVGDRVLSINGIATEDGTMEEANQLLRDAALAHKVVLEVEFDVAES

GRIP2_5, Q9C0E4 = target: GRIP2_5, Q9C0E4
GRIP2_5, Q9C0E4, sequence (Q9C0E4 544-642): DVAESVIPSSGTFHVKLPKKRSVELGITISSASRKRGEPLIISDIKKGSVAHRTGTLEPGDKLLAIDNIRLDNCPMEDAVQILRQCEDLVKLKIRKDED

GRIP2_6, Q9C0E4 = target: GRIP2_6, Q9C0E4
GRIP2_6, Q9C0E4, sequence (Q9C0E4 648-740): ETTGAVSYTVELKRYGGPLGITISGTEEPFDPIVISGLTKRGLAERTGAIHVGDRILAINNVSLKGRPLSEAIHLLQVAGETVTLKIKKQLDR

IL16_1, Q14005 = target: IL16_1, Q14005
IL16_1, Q14005, sequence (Q14005 210-306): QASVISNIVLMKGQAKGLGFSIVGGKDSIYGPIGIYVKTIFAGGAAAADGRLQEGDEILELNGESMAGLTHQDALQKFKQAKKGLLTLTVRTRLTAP

IL16_3, Q14005 = target: IL16_3, Q14005
IL16_3, Q14005, sequence (Q14005 1107-1207): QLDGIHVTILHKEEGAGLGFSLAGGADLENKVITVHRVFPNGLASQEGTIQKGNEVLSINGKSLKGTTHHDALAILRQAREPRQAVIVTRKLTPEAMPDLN

Inadl_10, Q8NI35 = target: Inadl_10, Q8NI35
Inadl_10, Q8NI35, sequence (Q8NI35 1673-1763): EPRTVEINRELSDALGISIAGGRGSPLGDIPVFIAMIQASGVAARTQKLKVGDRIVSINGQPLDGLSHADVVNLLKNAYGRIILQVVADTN

LNX1_1, Q8TBB1 = target: LNX1_1, Q8TBB1
LNX1_1, Q8TBB1, sequence (Q8TBB1 261-371): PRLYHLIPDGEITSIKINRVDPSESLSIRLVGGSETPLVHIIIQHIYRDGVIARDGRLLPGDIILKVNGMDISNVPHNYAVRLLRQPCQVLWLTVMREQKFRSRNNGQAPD

LNX1_3, Q8TBB1 = target: LNX1_3, Q8TBB1
LNX1_3, Q8TBB1, sequence (Q8TBB1 500-596): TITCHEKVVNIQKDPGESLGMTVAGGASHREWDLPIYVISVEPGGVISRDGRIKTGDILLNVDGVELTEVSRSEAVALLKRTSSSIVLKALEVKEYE

LNX2_3, Q8N448 = target: T4, LNX2_3, Q8N448
MAGI2_4, Q86UL8 = target: MAGI2_4, Q86UL8
MAGI2_4, Q86UL8, sequence (Q86UL8 772-865): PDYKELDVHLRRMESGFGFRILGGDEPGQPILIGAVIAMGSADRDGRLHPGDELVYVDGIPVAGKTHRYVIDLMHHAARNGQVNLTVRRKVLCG

MAGI2_5, Q86UL8 = target: MAGI2_5, Q86UL8
MAGI2_5, Q86UL8, sequence (Q86UL8 915-1017): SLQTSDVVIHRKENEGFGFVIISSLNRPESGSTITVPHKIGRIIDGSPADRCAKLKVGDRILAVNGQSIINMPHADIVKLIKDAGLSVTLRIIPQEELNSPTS

MPP2, Q14168 = target: T5, MPP2, Q14168
MPP7, Q5T2T1 = target: T6, MPP7, Q5T2T1
NHERF3_1, Q5T2W1 = target: T7, NHERF3_1, Q5T2W1
PCLO, Q9Y6V0 = target: T8, PCLO, Q9Y6V0
PDZRN3_1, Q9UPQ7 = target: T9, PDZRN3_1, Q9UPQ7
PTPN3, P26045 = target: PTPN3, P26045
PTPN3, P26045, sequence (P26045 505-587): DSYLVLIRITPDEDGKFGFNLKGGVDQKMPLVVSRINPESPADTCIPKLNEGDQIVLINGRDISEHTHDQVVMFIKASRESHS

SCRIB_3, Q14160 = target: SCRIB_3, Q14160
SCRIB_3, Q14160, sequence (Q14160 999-1103): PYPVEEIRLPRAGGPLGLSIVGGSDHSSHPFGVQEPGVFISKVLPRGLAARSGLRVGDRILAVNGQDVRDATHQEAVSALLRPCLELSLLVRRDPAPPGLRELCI

SNTG1, Q9NSN8 = target: T10, SNTG1, Q9NSN8
TJP1_3, Q07157 = target: TJP1_3, Q07157
TJP1_3, Q07157, sequence (Q07157 416-512): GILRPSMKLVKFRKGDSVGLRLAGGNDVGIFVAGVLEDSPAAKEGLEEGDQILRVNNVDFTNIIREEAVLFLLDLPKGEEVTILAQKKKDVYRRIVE

Row | Binder | pKd (APBA1_2, Q02410) | pKd (APBA2_2, Q99767) | pKd (ARHGAP21, Q5T5U3) | pKd (DLG1_1, Q12959) | pKd (DLG4_2, P78352) | pKd (FRMPD4, Q14CM0) | pKd (GRID2IP_2, A4D2P6) | pKd (GRIP2_3, Q9C0E4) | pKd (GRIP2_4, Q9C0E4) | pKd (GRIP2_5, Q9C0E4) | pKd (GRIP2_6, Q9C0E4) | pKd (IL16_1, Q14005) | pKd (IL16_3, Q14005) | pKd (Inadl_10, Q8NI35) | pKd (LNX1_1, Q8TBB1) | pKd (LNX1_3, Q8TBB1) | pKd (LNX2_3, Q8N448) | pKd (MAGI2_4, Q86UL8) | pKd (MAGI2_5, Q86UL8) | pKd (MPP2, Q14168) | further results
1 | B1 | below the threshold | below the threshold | below the threshold | below the threshold | below the threshold | below the threshold | below the threshold | below the threshold | below the threshold | below the threshold | below the threshold | below the threshold | below the threshold | below the threshold | below the threshold | below the threshold | below the threshold | 3.62 | 3.8 | below the threshold | pKd (MPP7, Q5T2T1): below the threshold; pKd (NHERF3_1, Q5T2W1): below the threshold; pKd (PCLO, Q9Y6V0): below the threshold; pKd (PDZRN3_1, Q9UPQ7): below the threshold; pKd (PTPN3, P26045): 3.98; pKd (SCRIB_3, Q14160): below the threshold; pKd (SNTG1, Q9NSN8): below the threshold; pKd (TJP1_3, Q07157): below the threshold
2 | B2 | below the threshold | below the threshold | below the threshold | below the threshold | below the threshold | below the threshold | below the threshold | below the threshold | below the threshold | below the threshold | below the threshold | below the threshold | below the threshold | below the threshold | below the threshold | below the threshold | below the threshold | below the threshold | below the threshold | below the threshold | pKd (MPP7, Q5T2T1): below the threshold; pKd (NHERF3_1, Q5T2W1): below the threshold; pKd (PCLO, Q9Y6V0): below the threshold; pKd (PDZRN3_1, Q9UPQ7): below the threshold; pKd (PTPN3, P26045): 3.97; pKd (SCRIB_3, Q14160): below the threshold; pKd (SNTG1, Q9NSN8): below the threshold; pKd (TJP1_3, Q07157): below the threshold
3 | B3 | 3.59 | below the threshold | 3.92 | 5.12 | 5.41 | below the threshold | below the threshold | below the threshold | below the threshold | below the threshold | 3.55 | 4.09 | below the threshold | below the threshold | 3.78 | below the threshold | below the threshold | 4.77 | 4.41 | below the threshold | pKd (MPP7, Q5T2T1): below the threshold; pKd (NHERF3_1, Q5T2W1): 3.63; pKd (PCLO, Q9Y6V0): below the threshold; pKd (PDZRN3_1, Q9UPQ7): 4.25; pKd (PTPN3, P26045): 4.5; pKd (SCRIB_3, Q14160): 4.88; pKd (SNTG1, Q9NSN8): 4.46; pKd (TJP1_3, Q07157): below the threshold
4 | B4 | below the threshold | below the threshold | below the threshold | below the threshold | below the threshold | 3.7 | below the threshold | below the threshold | below the threshold | below the threshold | 4.1 | below the threshold | below the threshold | below the threshold | below the threshold | below the threshold | below the threshold | below the threshold | below the threshold | below the threshold | pKd (MPP7, Q5T2T1): below the threshold; pKd (NHERF3_1, Q5T2W1): 3.86; pKd (PCLO, Q9Y6V0): below the threshold; pKd (PDZRN3_1, Q9UPQ7): below the threshold; pKd (PTPN3, P26045): 4.2; pKd (SCRIB_3, Q14160): below the threshold; pKd (SNTG1, Q9NSN8): below the threshold; pKd (TJP1_3, Q07157): below the threshold
